Assay results from the supplement of paper PMC10724198.
± gives the standard deviation of the averaged measurements.

Legend:
Saccharomyces cerevisiae [1] = assay: protein stability index of tFT-peptide fusion (C-terminal peptide) (PSI (0-1 scale)); higher = more stable (slower turnover)
Protocol: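 MPS profiling in S. cerevisiae of the tFT-X12 degron library: putative degron peptides plus stable controls, 12 aa, fused to the C-terminus of a sfGFP-mCherry timer. Cells are FACS-sorted into 8 mCherry/sfGFP bins and deep-sequenced. PSI runs from 0 (unstable) to 1 (stable). Backgrounds are wild type, das1Δ and doa10Δ at 30 °C, and wild type, das1Δ, cdc34-1 and cdc53-1 at 37 °C; 2-3 technical replicates each.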

Saccharomyces cerevisiae [2] = assay: as above; conditions: genetic background: wild type; temperature: 30 C
[3] = genetic background: cdc34-1, temperature: 37 C
[4] = genetic background: cdc53-1, temperature: 37 C
[5] = genetic background: das1 deletion, temperature: 30 C
[6] = genetic background: das1 deletion, temperature: 37 C
[7] = genetic background: doa10 deletion, temperature: 30 C
[8] = genetic background: wild type, temperature: 30 C
[9] = genetic background: wild type, temperature: 37 C
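Further: PSI is a weighted mean of sequencing reads over stability bins, variants kept only with over 10 reads, mCherry proximal and sfGFP distal, peptide attached via GGGS linker.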

Row | Sequence | protein stability index (Saccharomyces cerevisiae [1]; [3]) | protein stability index (Saccharomyces cerevisiae [1]; [4]) | protein stability index (Saccharomyces cerevisiae [1]; [5]) | protein stability index (Saccharomyces cerevisiae [1]; [6]) | protein stability index (Saccharomyces cerevisiae [1]; [7]) | protein stability index (Saccharomyces cerevisiae [1]; [8]) | protein stability index (Saccharomyces cerevisiae [1]; [9]) | protein stability index (Saccharomyces cerevisiae [2])
1 | LCFGMVELMWIY | 0.418 ± 0.057 | 0.52 ± 0.071 | 0.388 ± 0.046 | 0.521 ± 0.011 | 0.371 ± 0.047 | 0.377 ± 0.037 | 0.471 ± 0.018 | 0.458 ± 0.0053
2 | FLFLLLFLLLCC | 0.467 ± 0.0069 | 0.488 ± 0.0017 | 0.377 ± 0.03 | 0.534 ± 0.049 | 0.349 ± 0.011 | 0.318 ± 0.033 | 0.4634 ± 0.00047 | 0.407 ± 0.0033
3 | VFLACSMTGGDA | 0.256 ± 0.029 | 0.326 ± 0.022 | 0.373 ± 0.067 | 0.27 ± 0.0086 | 0.413 ± 0.021 | 0.36 ± 0.049 | 0.264 ± 0.016 | 0.331 ± 0.022
4 | VFDFVFHLRFVV | 0.336 ± 0.032 | 0.419 ± 0.0096 | 0.427 ± 0.028 | 0.468 ± 0.0082 | 0.091 ± 0.019 | 0.0905 ± 0.025 | 0.117 ± 0.011 | 0.1155 ± 0.00063
5 | VVCLCEYRLHIF | 0.203 ± 0.029 | 0.274 ± 0.031 | 0.214 ± 0.034 | 0.399 ± 0.011 | 0.0658 ± 0.017 | 0.0733 ± 0.033 | 0.0928 ± 0.0073 | 0.0917 ± 0.047
6 | LFFPLPGILSFF | 0.76 ± 0.027 | 0.771 ± 0.022 | 0.631 ± 0.022 | 0.7783 ± 0.0029 | 0.484 ± 0.0073 | 0.498 ± 0.02 | 0.676 ± 0.033 | 0.523 ± 0.046
7 | TLCCLVCSQGVV | 0.478 ± 0.051 | 0.598 ± 0.013 | 0.471 ± 0.027 | 0.5217 ± 0.0031 | 0.482 ± 0.031 | 0.479 ± 0.039 | 0.526 ± 0.01 | 0.484 ± 0.016
8 | FLASLCFFPLLC | 0.388 ± 0.041 | 0.413 ± 0.031 | 0.42 ± 0.027 | 0.5574 ± 0.0039 | 0.496 ± 0.024 | 0.372 ± 0.02 | 0.5038 ± 0.0034 | 0.456 ± 0.014
9 | VWLAWCIVGGLG | 0.472 ± 0.0083 | 0.5494 ± 0.0026 | 0.386 ± 0.024 | 0.5441 ± 0.0026 | 0.352 ± 0.015 | 0.369 ± 0.028 | 0.523 ± 0.0062 | 0.428 ± 0.03
10 | RHTVFFCQLLLV | 0.291 ± 0.0074 | 0.368 ± 0.0077 | 0.307 ± 0.012 | 0.43923 ± 3.7e-05 | 0.175 ± 0.024 | 0.185 ± 0.026 | 0.277 ± 0.046 | 0.238 ± 0.003
11 | CFTLSLCLAFFF | 0.41 ± 0.026 | 0.455 ± 0.013 | 0.403 ± 0.03 | 0.433 ± 0.0072 | 0.324 ± 0.017 | 0.334 ± 0.026 | 0.4091 ± 0.0024 | 0.377 ± 0.014
12 | LLILSVRPFVFV | 0.479 ± 0.0094 | 0.52 ± 0.0072 | 0.397 ± 0.032 | 0.544 ± 0.0068 | 0.3727 ± 0.0033 | 0.367 ± 0.025 | 0.515 ± 0.022 | 0.43 ± 0.0067
13 | ALLIYFLCRCIP | 0.4326 ± 0.00094 | 0.476 ± 0.011 | 0.343 ± 0.033 | 0.522 ± 0.016 | 0.301 ± 0.015 | 0.33 ± 0.035 | 0.483 ± 0.032 | 0.44 ± 0.034
14 | RYTWHGICIVTR | 0.43107 ± 0.00014 | 0.456 ± 0.013 | 0.312 ± 0.027 | 0.4805 ± 0.0035 | 0.285 ± 0.0063 | 0.313 ± 0.019 | 0.476 ± 0.0052 | 0.4401 ± 0.0033
15 | VFLDCCLRVFVD | 0.252 ± 0.016 | 0.379 ± 0.028 | 0.228 ± 0.032 | 0.424 ± 0.014 | 0.188 ± 0.014 | 0.222 ± 0.023 | 0.389 ± 0.012 | 0.312 ± 0.011
16 | RARRFGKWERSG | 0.644 ± 0.032 | 0.761 ± 0.025 | 0.639 ± 0.013 | 0.731 ± 0.024 | 0.33 ± 0.03 | 0.377 ± 0.03 | 0.544 ± 0.0099 | 0.4453 ± 0.0039
17 | CFFSLLLLIFSV | 0.4101 ± 0.0016 | 0.412 ± 0.024 | 0.311 ± 0.041 | 0.4838 ± 0.0022 | 0.3486 ± 0.0032 | 0.31 ± 0.017 | 0.4476 ± 0.0032 | 0.377 ± 0.032
18 | CCSRFLMLRILV | 0.197 ± 0.062 | 0.208 ± 0.015 | 0.287 ± 0.041 | 0.438 ± 0.026 | 0.118 ± 0.0037 | 0.1 ± 0.0099 | 0.126 ± 0.0093 | 0.146 ± 0.014
19 | VFKLGWVLCVLL | 0.286 ± 0.027 | 0.386 ± 0.0098 | 0.286 ± 0.01 | 0.389 ± 0.011 | 0.152 ± 0.0011 | 0.165 ± 0.0049 | 0.3 ± 0.0072 | 0.208 ± 0.024
20 | RLILAIVVSGGL | 0.4098 ± 0.0018 | 0.425 ± 0.033 | 0.295 ± 0.034 | 0.495 ± 0.0071 | 0.252 ± 0.015 | 0.305 ± 0.022 | 0.457 ± 0.03 | 0.389 ± 0.0071

Row | Sequence | protein stability index (Saccharomyces cerevisiae [1]; [3]) | protein stability index (Saccharomyces cerevisiae [1]; [4]) | protein stability index (Saccharomyces cerevisiae [1]; [5]) | protein stability index (Saccharomyces cerevisiae [1]; [6]) | protein stability index (Saccharomyces cerevisiae [1]; [7]) | protein stability index (Saccharomyces cerevisiae [1]; [8]) | protein stability index (Saccharomyces cerevisiae [1]; [9]) | protein stability index (Saccharomyces cerevisiae [2])
21 | GFRVTTCASWIC | 0.557 ± 0.016 | 0.734 ± 0.011 | 0.612 ± 0.015 | 0.729 ± 0.015 | 0.143 ± 0.012 | 0.15 ± 0.027 | 0.191 ± 0.012 | 0.177 ± 0.02
22 | FVWAVGLVSASV | 0.507 ± 0.0064 | 0.527 ± 0.0082 | 0.402 ± 0.022 | 0.561 ± 0.0067 | 0.379 ± 0.013 | 0.414 ± 0.03 | 0.52 ± 0.0091 | 0.503 ± 0.01
23 | FFFVLVSGWWGV | 0.181 ± 0.0054 | 0.344 ± 0.059 | 0.237 ± 0.027 | 0.472 ± 0.044 | 0.205 ± 0.022 | 0.221 ± 0.021 | 0.374 ± 0.013 | 0.36 ± 0.041
24 | VCSRWFFVFVVR | 0.402 ± 0.033 | 0.424 ± 0.043 | 0.331 ± 0.035 | 0.523 ± 0.014 | 0.409 ± 0.014 | 0.291 ± 0.051 | 0.4917 ± 0.0013 | 0.388 ± 0.011
25 | FFLDRLVIRLIA | 0.1487 ± 0.00028 | 0.173 ± 0.0047 | 0.248 ± 0.029 | 0.383 ± 0.0071 | 0.0576 ± 0.024 | 0.0715 ± 0.011 | 0.0735 ± 0.014 | 0.105 ± 0.052
26 | VFRLLLFFVFVF | 0.266 ± 0.017 | 0.183 ± 0.068 | 0.287 ± 0.046 | 0.3848 ± 0.0031 | 0.279 ± 0.0075 | 0.236 ± 0.034 | 0.354 ± 0.015 | 0.37 ± 0.0056
27 | RWALPALWAYAA | 0.493 ± 0.029 | 0.715 ± 0.034 | 0.583 ± 0.025 | 0.7029 ± 0.007 | 0.0884 ± 0.011 | 0.105 ± 0.012 | 0.16 ± 0.05 | 0.146 ± 0.094
28 | GWGVFFVMRIQV | 0.1751 ± 0.00088 | 0.259 ± 0.055 | 0.225 ± 0.02 | 0.367 ± 0.017 | 0.197 ± 0.016 | 0.198 ± 0.024 | 0.301 ± 0.029 | 0.34 ± 0.024
29 | NFKELMEKSKYR | 0.704 ± 0.02 | 0.752 ± 0.029 | 0.677 ± 0.019 | 0.763 ± 0.028 | 0.677 ± 0.061 | 0.665 ± 0.027 | 0.718 ± 0.012 | 0.719 ± 0.018
30 | CTFFCICVFFLL | 0.349 ± 0.019 | 0.413 ± 0.025 | 0.339 ± 0.027 | 0.463 ± 0.0064 | 0.267 ± 0.012 | 0.281 ± 0.022 | 0.4 ± 0.0063 | 0.392 ± 0.042
31 | WLCLAVLVRFPC | 0.273 ± 0.0054 | 0.274 ± 0.018 | 0.25 ± 0.043 | 0.3989 ± 0.0019 | 0.2621 ± 0.0017 | 0.248 ± 0.017 | 0.369 ± 0.018 | 0.3532 ± 0.0026
32 | GWRRRIWLCRLQ | 0.575 ± 0.018 | 0.741 ± 0.038 | 0.7 ± 0.013 | 0.7939 ± 0.004 | 0.41 ± 0.02 | 0.412 ± 0.036 | 0.662 ± 0.054 | 0.505 ± 0.041
33 | GVCSFFVCVFFV | 0.195 ± 0.0042 | 0.319 ± 0.034 | 0.233 ± 0.036 | 0.41 ± 0.005 | 0.162 ± 0.008 | 0.177 ± 0.024 | 0.303 ± 0.0089 | 0.291 ± 0.0064
34 | FAFPTPPPLLFD | 0.68 ± 0.047 | 0.7511 ± 0.00095 | 0.693 ± 0.035 | 0.735 ± 0.0083 | 0.667 ± 0.0073 | 0.676 ± 0.0095 | 0.736 ± 0.013 | 0.751 ± 0.027
35 | IRVFSFLLFGCF | 0.465 ± 0.027 | 0.503 ± 0.007 | 0.373 ± 0.033 | 0.546 ± 0.03 | 0.358 ± 0.012 | 0.364 ± 0.027 | 0.488 ± 0.02 | 0.44 ± 0.056
36 | FIFYYTVLLLCR | 0.0366 ± 0.0015 | 0.0671 ± 0.0072 | 0.131 ± 0.024 | 0.171 ± 0.0048 | 0.13 ± 0.0087 | 0.115 ± 0.019 | 0.1312 ± 0.0012 | 0.181 ± 0.014
37 | FLLEVFVLGRTL | 0.627 ± 0.0076 | 0.653 ± 0.023 | 0.43 ± 0.018 | 0.597 ± 0.0081 | 0.402 ± 0.032 | 0.432 ± 0.022 | 0.577 ± 0.012 | 0.4742 ± 0.0019
38 | RVVITYLVLSNR | 0.648 ± 0.06 | 0.686 ± 0.013 | 0.509 ± 0.018 | 0.646 ± 0.011 | 0.522 ± 0.039 | 0.505 ± 0.018 | 0.6445 ± 0.0056 | 0.547 ± 0.094
39 | SVVYSVWIYLLH | 0.352 ± 0.018 | 0.4407 ± 0.0016 | 0.292 ± 0.022 | 0.484 ± 0.026 | 0.175 ± 0.0072 | 0.213 ± 0.03 | 0.392 ± 0.011 | 0.309 ± 0.0075
